In test [1] the target is T1, CaptureSelect Kappa XL ligand.
T1 construct: also called Biotin-KappaXL; Kappa XL column
The experiment in a line: CaptureSelect Kappa XL affinity column after Protein A. The text has this: Multispecific binding proteins of the present disclosure, in clarified medium or recovered from Protein A purification, may be subjected to a second purification step using a CaptureSelect™ Kappa XL (Thermo Fisher Cat. #494321001) pre-packed affinity column. Briefly, multispecific binding proteins of the present disclosure recovered from Protein A purification are subjected to a Kappa XL affinity column which has been equilibrated with a compatible buffer, such as phosphate buffered saline (PBS) at pH 7.4. The column is then washed to remove nonspecific binding components. The bound multispecific binding protein is eluted, for example, by pH gradient (such as 20 mM Tris buffer pH 7.0 to 10 mM sodium citrate buffer pH 3.0). Binding protein fractions are detected, such as by UV absorbance or SDS-PAGE, and then are pooled.
Percent flow through (% F T) and percent elution of exemplified heteromabs of the present disclosure following kappa XL column purification essentially as described herein is assessed. Briefly, various antibody formats (as set forth in Table 3) are subjected to Kappa XL column. Flow through material is considered to comprise of impurities, such as homodimers, or misassembled antibodies, whereas the Kappa XL ligand bound material (elution material) is considered to be the correctly assembled bispecific antibody.

In a further test the target is T2, human TIGIT-ECD (human, UniProt Q495A1 22-141).
T2 construct: extracellular domain
T2 sequence (looked up): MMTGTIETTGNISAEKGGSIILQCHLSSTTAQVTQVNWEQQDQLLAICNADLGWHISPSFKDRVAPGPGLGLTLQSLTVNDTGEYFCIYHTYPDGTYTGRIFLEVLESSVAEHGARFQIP
The experiment in a line: ELISA, antibody at 1 µg/mL captured by anti-human-Fc, antigen titrated. As to the method:
(§1) Binding affinity of exemplified multispecific binding proteins provided herein is assessed via ELISA. Briefly, 384-well flat bottom Elisa plates are coated with 1 ug/mL anti-human-Fc protein at 20 ul/well and incubated overnight at 4° C. The following day, plates are washed 3× with wash buffer (0.05% PBS-Tween 20) and blocked for 1 hr with blocking buffer (casein, 60 μL/well) at room temperature (RT). Plates are washed 3× with wash buffer, and binding proteins as shown in Table 10 are added at 1 μg/mL in triplicates at 20 uL/well in DPBS (Dulbecco's HyClone). Plates are incubated at RT for 1 hr, washed 3× with wash buffer, and titrated antigens are added at 20 ul/well and incubated for 60 min at RT. Plates are washed 3×, and 20 uL/well NAAP substrate is added and incubated for 20 min. Plates are washed 3×, and PNPP substrate is added at 20 uL/well, and reactions are stopped, and optical density is measured using a colorimetric microplate reader set to 405 nm.
Background: An ELISA detects its analyte on a solid surface through an enzyme-linked reagent.

The target in another test is T3, human PD-1-ECD (human, UniProt Q15116 25-170).
T3 construct: extracellular domain
Described as above. The protocol:
as §1

In test [2] the target is T4, Protein A (UniProt P38507 37-327, biotin (site not stated)).
T4 construct: Reagent; also called Biotin-Protein A; Protein A ligand
The experiment in a line: ELISA, Biotin-Protein A. As to the method: (§2) Binding of the heavy chain Fc region formats of Table 1b for exemplified IgG heteromabs to Protein A ligand may be assessed via ELISA. Briefly, 96-well flat bottom Elisa plates are coated with 2 ug/mL goat anti-human-kappa protein at 100 ul/well and incubated overnight at 4° C. The following day, plates are washed 3× with wash buffer 0.05% PBS-Tween 20 (PBS-T)) and blocked for 1 hr with blocking buffer (casein, 200 µL/well) at room temperature (RT). Plates are washed 3× with wash buffer, and binding proteins (as shown in Table 4) are added to individual wells at 10 μg/mL and serially diluted 1:3, at a volume of 100 uL/well in PBS-T. Plates are incubated at RT for 1 hr, and washed 3× with wash buffer. Biotin-Protein A at 0.5 ug/ml is added at 100 uL/well and plates are incubated for 1 hr at RT, washed 3×, and 100 uL/well of streptavidin labeled alkaline phosphatase (SA-AP) is added to each well. Plates are incubated 30 min at RT. Plates are then washed 3×, and 100 uL/well of p-Nitrophenyl Phosphate, Disodium Salt (PNAP)(Thermo Fisher Scientific) substrate is added. Reactions are stopped and optical density is measured using a colorimetric microplate reader set to 405 nm.

The target of test [3] is T4, Protein A. Briefly: ELISA, antibody titrated on goat anti-human-kappa, Biotin-Protein A at 0.5 ug/ml. As to the method:
as §2

Where a chain is given by its changes, count along the chain named.

T3 sequence (Q15116 25-170): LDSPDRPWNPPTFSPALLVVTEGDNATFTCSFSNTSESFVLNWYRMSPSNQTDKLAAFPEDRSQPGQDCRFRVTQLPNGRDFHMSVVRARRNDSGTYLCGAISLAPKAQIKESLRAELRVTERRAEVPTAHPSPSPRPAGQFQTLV

B1: PD-1-TIGIT IgG1 heteromab (DKK on PD-1 light chain Fab region only) (bispecific antibody)
heavy 1: QVQLVQSGAEVKKPGSSVKVSCKASGGTFSSYAISWVRYAPGQGLEWMGLIIPSFDTAGYAQKFQGRVAITVDESTSTAYMELSSLRSEDTAVYYCARAEHSSTGTFDYWGRGTLVTVSSASTKGPSVFPLAPSSKSTSGGTAALGCLVADYFPEPVTVSWNSGALTSGVHTFPAVLQSSGLYSLASVVTVPSSSLGTQTYICNVNHKPSNTKVDERVEPKSCDKTHTCPPCPAPEAAGGPSVFLFPPKPKDTLMISRTPEVTCVVVDVSHEDPEVKFNWYVDGVEVHNAKTKPREEQYNSTYRVVSVLTVLHQDWLNGKEYKCKVSNKALAAPIEKTISKAKGQPREPQVYTLPPSREEMTDNQVSLTCLVKGFYPSDIAVEWESNGQPENNYKTTPPVLMSDGSFFLASKLTVDKSRWQQGNVFSCSVMHEALHNHYTQKSLSLSPGK
light 1: DIQMTQSPSSVSASVGDRVTITCRASQGISSWLAWYQRKPGDAPKLLISAASSLQSGVPSRFSGSGSGTDFTLTISSLQPEDFATYYCQQANHLPFTFGGGTKVEIKRTDAAPSVFIFPPSDKQLKSGTARVVCLLNNFYPRKAKVQWKVDNALQSGNSQESVTEQDSKDSTYSLISTLTLSKADYEKHKVYACEVTHKGLSSPVTKSFNRGEC
heavy 2: EVQLVESGGGLVQPGGSLRLSCAASGFDFSSYGVPWVRKAPGKGLEWVGYIDPIFGPTYYADEVKGRFTISADDSKNSLYLQMNSLKTEDTAVYYCARDYSYGYAYALDIWGQGTLVTVSSASTKGPSVFPLAPSSKSTSGGTAALGCLVKDYFPEPVTVSWNSGALTSGVHTFPAVLQSSGLYSLSSVVTVPSSSLGTQTYICNVNHKPSNTKVDKRVEPKSCDKTHTCPPCPAPEAAGGPSVFLFPPKPKDTLMISRTPEVTCVVVDVSHEDPEVKFNWYVDGVEVHNAKTKPREEQYNSTYRVVSVLTVLHQDWLNGKEYKCKVSNKALAAPIEKTISKAKGQPRRPRVYTLPPSREEMTKNQVSLVCLVKGFYPSDIAVEWESNGQPENNYKTTPPVLDSDGSFFLYSVLTVDKSRWQQGNVFSCSVMHEALHNHYTQKSLSLSPGK
light 2: RIVMTQTPLSLSVTPGQPASISCQASQRISPYLAWYLDKPGQPPQLLISRASKLASGVPDRFSGSGSGTDFTLKISRVEAEDVGVYYCQSYYVHTSSGYAFGGGTKVEIKRTVAAPSVFIFPPSDEQLKSGTASVVCLLNNFYPREAKVQWKVDNALQSGNSQESVTEQDSKDSTYSLSSTLTLSKADYEKHKVYACEVTHQGLSSPVTKSFNRGEC
notes: also called PD-1-Tigit IgG1 heteromab (with DKK LC Fab region on PD-1 arm only)
The EC50 is the midpoint of the concentration-response curve. As to B1, in test [1], the “% Elution” value was determined as 80.7% and the “% Flow Through (FT)” value stood at 19.3%. The EC50 with human TIGIT-ECD worked out at 0.0454 nM. Moreover, in the test with human PD-1-ECD, the response was half-maximal at 0.0108 nM (EC50).

B2: PD-1-TIGIT IgG1 heteromab (KK on PD-1 light chain Fab region only) (bispecific antibody)
heavy 1: B1 heavy 1
light 1: B1 light 1 with D110V
heavy 2: B1 heavy 2
light 2: B1 light 2
notes: also called PD-1-Tigit IgG1 heteromab (with KK LC Fab region on PD-1 arm only)
For the molecule B2, in test [1], the “% Elution” value was found to be 74.8% and the “% Flow Through (FT)” value was 25.2%. In addition, the concentration for a half-maximal effect (EC50) in the test with human TIGIT-ECD is 0.0182 nM. This molecule also came in with an EC50 with human PD-1-ECD of 0.0093 nM.

B3: cMet-BAH10 IgG1 heteromab (RE on cMet heavy chain Fc region only) (bispecific antibody)
heavy 1: EVQLVESGGGLVQPGGSLRLSCAASGYTFTSYWLHWVRKAPGKGLEWVGMIDPSNSDTRFNPEFKDRFTISADTSKNTAYLQMNSLRAEDTAVYYCATYRSYVTPLDYWGQGTLVTVSSASTKGPSVFPLAPSSKSTSGGTAALGCLVKDYFPEPVTVSWNSGALTSGVATGPAVLQSSGLYSLSSVVTVPSSSLGTQTYICNVNHKPSNTKVDKKVEPKSCDKTHTCPPCPAPEAAGGPSVFLFPPKPKDTLMISRTPEVTCVVVDVSHEDPEVKFNWYVDGVEVHNAKTKPREEQYNSTYRVVSVLTVLHRDWLNGEEYKCKVSNKALPAPIEKTISKAKGQPREPQVYTLPPSREEMTDNQVSLTCLVKGFYPSDIAVEWESNGQPENNYKTTPPVLMSDGSFFLASKLTVDKSRWQQGNVFSCSVMHEALHNHYTQKSLSLSPGK
light 1: RIQMTQSPSSLSASVGDRVTITCKSSQSLLYTSSQKNYLAWYQDKPGKAPKLLIYWASTRESGVPSRFSGSGSGTDFTLTISSLQPEDFATYYCQQYYAYPWTFGQGTKVEIKRTVAAPSVFIFPPSDEQLKSGTASVVCYLNNFYPREAKVQWKVDNALQSGNSQESVTEQDSKDSTYSLWSTLTLSKADYEKHKVYACEVTHQGLSSPVTKSFNRGEC
heavy 2: QVQLVQSGAEVKKPGSSVKVSCKASGYTFTTYYLHWVRYAPGQGLEWMGWIYPGNVHAQYNEKFKGRVTITADKSTSTAYMELSSLRSEDTAVYYCARSWEGFPYWGRGTTVTVSSASTKGPSVFPLAPCSKSTSGGTAALGCLVKDYFPEPVTVSWNSGALTSGVHTFPAVLQSSGLYSLSSVVTVPSSSLGTQTYICNVNHKPSNTKVDKKVEPDSGDKTHTCPPCPAPEAAGGPSVFLFPPKPKDTLMISRTPEVTCVVVDVSHEDPEVKFNWYVDGVEVHNAKTKPREEQYNSTYRVVSVLTVLHQDWLNGKEYKCKVSNKALPAPIEKTISKAKGQPRRPRVYTLPPSREEMTKNQVSLVCLVKGFYPSDIAVEWESNGQPENNYKTTPPVLDSDGSFFLYSVLTVDKSRWQQGNVFSCSVMHEALHNHYTQKSLSLSPGK
light 2: DIQMTQSPSSLSASVGDRVTITCKASQNVGINVAWYQRKPGDAPKSLISSASYRYSGVPSRFSGSGSGTDFTLTISSLQPEDFATYFCQQYDTYPFTFGQGTKVEIKRTVAAPSVFIFPPSKEQLKSGTASVVCLLNNFYPREAKVQWKVDNALQSGNSQESVTEQDSKDSTYSLSSTLTLSKADYEKHKVYACEVTHQGLSSPVTKSFNRGEC
notes: also called cMet-BAH10 IgG1 heteromab (with RE HC Fc format on cMet arm only)
Take B3: in the test with Protein A [2], the “fold decrease in binding against cMet-BAH10 IgG1 heteromab” value is approximately 1.2 fold. In the test with Protein A [3], this molecule displayed an EC50 of 0.56 nM.

B4: cMet mAb (RE on both HCs) (antibody, human IgG1, kappa, L234A L235A)
heavy: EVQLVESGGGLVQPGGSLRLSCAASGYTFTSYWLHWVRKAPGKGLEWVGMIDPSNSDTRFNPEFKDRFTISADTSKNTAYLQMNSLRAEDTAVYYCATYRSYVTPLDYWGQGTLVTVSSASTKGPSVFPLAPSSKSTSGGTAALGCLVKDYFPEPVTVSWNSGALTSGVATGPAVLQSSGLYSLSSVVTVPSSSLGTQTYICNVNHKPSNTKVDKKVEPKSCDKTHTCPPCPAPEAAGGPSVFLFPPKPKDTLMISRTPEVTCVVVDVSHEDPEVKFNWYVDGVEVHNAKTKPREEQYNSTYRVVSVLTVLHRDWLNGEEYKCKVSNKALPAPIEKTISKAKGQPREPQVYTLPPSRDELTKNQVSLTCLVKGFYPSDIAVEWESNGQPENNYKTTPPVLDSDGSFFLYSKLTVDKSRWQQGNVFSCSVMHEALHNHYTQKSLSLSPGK
light: B3 light 1
notes: IgG1 / kappa; also called cMet parental mAb (with RE HC Fc format on both HCs)
Regarding B4, in the test with Protein A [2], the “fold decrease of binding affinity against parental” value was approximately 2 fold. It took 0.98 nM to reach a half-maximal effect in the test with Protein A [3] (EC50).

Values taken from US20230242671A1 (Eli Lilly, published 2023).
